He/Con_1a data for 40 molecules are collected here from patent US20150344570A1 (published 2015).

Sequences and labels used below:
B1: GpH7-A5/GpH7-B3 variant E269_20W/GpL16-k0 (antibody, human IgG1, kappa)
heavy 1: not shown
heavy 2: not shown
light: DIVMTQSPLSLPVTPGEPASISCQASESLVHSNRNTYLHWYLQKPGQSPQLLIYKVSNRFSGVPDRFSGSGSGTDFTLKISRVEAEDVGVYYCSQNTHVPPTFGQGTKVEIERTVAAPSVFIFPPSDEQLKSGTASVVCLLNNFYPREAKVQWKVDNALQSGNSQESVTEQDSKDSTYSLSSTLTLSKADYEKHKVYACEVTHQGLSSPVTKSFNRGEC
notes: also called He Ab E269_20W
B2: GpH7-A5/GpH7-B3 variant E333_11K/GpL16-k0 (antibody, human IgG1, kappa)
heavy 1: not shown
heavy 2: not shown
light: B1 light
notes: also called He Ab E333_11K
B3: GpH7-A5/GpH7-B3 variant K326_12R/GpL16-k0 (antibody, human IgG1, kappa)
heavy 1: not shown
heavy 2: not shown
light: B1 light
notes: also called He Ab K326_12R
B4: GpH7-A5/GpH7-B3 variant E333_15Y/GpL16-k0 (antibody, human IgG1, kappa)
heavy 1: not shown
heavy 2: not shown
light: B1 light
notes: also called He Ab E333_15Y
B5: GpH7-A5/GpH7-B3 variant K326_18N/GpL16-k0 (antibody, human IgG1, kappa)
heavy 1: not shown
heavy 2: not shown
light: B1 light
notes: also called He Ab K326_18N
B6: GpH7-A5/GpH7-B3 variant H268_05P/GpL16-k0 (antibody, human IgG1, kappa)
heavy 1: not shown
heavy 2: not shown
light: B1 light
notes: also called He Ab H268_05P
B7: GpH7-A5/GpH7-B3 variant G236_20W/GpL16-k0 (antibody, human IgG1, kappa)
heavy 1: not shown
heavy 2: not shown
light: B1 light
notes: also called He Ab G236_20W
B8: GpH7-A5/GpH7-B3 variant H268_02A/GpL16-k0 (antibody, human IgG1, kappa)
heavy 1: not shown
heavy 2: not shown
light: B1 light
notes: also called He Ab H268_02A
B9: GpH7-A5/GpH7-B3 variant K326_15Y/GpL16-k0 (antibody, human IgG1, kappa)
heavy 1: not shown
heavy 2: not shown
light: B1 light
notes: also called He Ab K326_15Y
B10: GpH7-A5/GpH7-B3 variant I336_02A/GpL16-k0 (antibody, human IgG1, kappa)
heavy 1: not shown
heavy 2: not shown
light: B1 light
notes: also called He Ab I336_02A
B11: GpH7-A5/GpH7-B3 variant K334_06M/GpL16-k0 (antibody, human IgG1, kappa)
heavy 1: not shown
heavy 2: not shown
light: B1 light
notes: also called He Ab K334_06M
B12: GpH7-A5/GpH7-B3 variant E333_12R/GpL16-k0 (antibody, human IgG1, kappa)
heavy 1: not shown
heavy 2: not shown
light: B1 light
notes: also called He Ab E333_12R
B13: GpH7-A5/GpH7-B3 variant H268_20W/GpL16-k0 (antibody, human IgG1, kappa)
heavy 1: not shown
heavy 2: not shown
light: B1 light
notes: also called He Ab H268_20W
B14: GpH7-A5/GpH7-B3 variant K326_16H/GpL16-k0 (antibody, human IgG1, kappa)
heavy 1: not shown
heavy 2: not shown
light: B1 light
notes: also called He Ab K326_16H
B15: GpH7-A5/GpH7-B3 variant I336_10E/GpL16-k0 (antibody, human IgG1, kappa)
heavy 1: not shown
heavy 2: not shown
light: B1 light
notes: also called He Ab I336_10E
B16: GpH7-A5/GpH7-B3 variant H268_14T/GpL16-k0 (antibody, human IgG1, kappa)
heavy 1: not shown
heavy 2: not shown
light: B1 light
notes: also called He Ab H268_14T
B17: GpH7-A5/GpH7-B3 variant E333_14T/GpL16-k0 (antibody, human IgG1, kappa)
heavy 1: not shown
heavy 2: not shown
light: B1 light
notes: also called He Ab E333_14T
B18: GpH7-A5/GpH7-B3 variant I336_18N/GpL16-k0 (antibody, human IgG1, kappa)
heavy 1: not shown
heavy 2: not shown
light: B1 light
notes: also called He Ab I336_18N
B19: GpH7-A5/GpH7-B3 variant E333_08L/GpL16-k0 (antibody, human IgG1, kappa)
heavy 1: not shown
heavy 2: not shown
light: B1 light
notes: also called He Ab E333_08L
B20: GpH7-A5/GpH7-B3 variant E333_09D/GpL16-k0 (antibody, human IgG1, kappa)
heavy 1: not shown
heavy 2: not shown
light: B1 light
notes: also called He Ab E333_09D
B21: GpH7-A5/GpH7-B3 variant H268_08L/GpL16-k0 (antibody, human IgG1, kappa)
heavy 1: not shown
heavy 2: not shown
light: B1 light
notes: also called He Ab H268_08L
B22: GpH7-A5/GpH7-B3 variant E333_04F/GpL16-k0 (antibody, human IgG1, kappa)
heavy 1: not shown
heavy 2: not shown
light: B1 light
notes: also called He Ab E333_04F
B23: GpH7-A5/GpH7-B3 variant I332_12R/GpL16-k0 (antibody, human IgG1, kappa)
heavy 1: not shown
heavy 2: not shown
light: B1 light
notes: also called He Ab I332_12R
B24: GpH7-A5/GpH7-B3 variant K326_14T/GpL16-k0 (antibody, human IgG1, kappa)
heavy 1: not shown
heavy 2: not shown
light: B1 light
notes: also called He Ab K326_14T
B25: GpH7-A5/GpH7-B3 variant G236_02A/GpL16-k0 (antibody, human IgG1, kappa)
heavy 1: not shown
heavy 2: not shown
light: B1 light
notes: also called He Ab G236_02A
B26: GpH7-A5/GpH7-B3 variant K334_10E/GpL16-k0 (antibody, human IgG1, kappa)
heavy 1: not shown
heavy 2: not shown
light: B1 light
notes: also called He Ab K334_10E
B27: GpH7-A5/GpH7-B3 variant E333_13S/GpL16-k0 (antibody, human IgG1, kappa)
heavy 1: not shown
heavy 2: not shown
light: B1 light
notes: also called He Ab E333_13S
B28: GpH7-A5/GpH7-B3 variant I336_04F/GpL16-k0 (antibody, human IgG1, kappa)
heavy 1: not shown
heavy 2: not shown
light: B1 light
notes: also called He Ab I336_04F
B29: GpH7-A5/GpH7-B3 variant H268_12R/GpL16-k0 (antibody, human IgG1, kappa)
heavy 1: not shown
heavy 2: not shown
light: B1 light
notes: also called He Ab H268_12R
B30: GpH7-A5/GpH7-B3 variant I336_03V/GpL16-k0 (antibody, human IgG1, kappa)
heavy 1: not shown
heavy 2: not shown
light: B1 light
notes: also called He Ab I336_03V
B31: GpH7-A5/GpH7-B3 variant E333_02A/GpL16-k0 (antibody, human IgG1, kappa)
heavy 1: not shown
heavy 2: not shown
light: B1 light
notes: also called He Ab E333_02A
B32: GpH7-A5/GpH7-B3 variant I336_06M/GpL16-k0 (antibody, human IgG1, kappa)
heavy 1: not shown
heavy 2: not shown
light: B1 light
notes: also called He Ab I336_06M
B33: GpH7-A5/GpH7-B3 variant E333_06M/GpL16-k0 (antibody, human IgG1, kappa)
heavy 1: not shown
heavy 2: not shown
light: B1 light
notes: also called He Ab E333_06M
B34: GpH7-A5/GpH7-B3 variant E333_07I/GpL16-k0 (antibody, human IgG1, kappa)
heavy 1: not shown
heavy 2: not shown
light: B1 light
notes: also called He Ab E333_07I
B35: GpH7-A5/GpH7-B3 variant E333_03V/GpL16-k0 (antibody, human IgG1, kappa)
heavy 1: not shown
heavy 2: not shown
light: B1 light
notes: also called He Ab E333_03V
B36: GpH7-A5/GpH7-B3 variant E333_16H/GpL16-k0 (antibody, human IgG1, kappa)
heavy 1: not shown
heavy 2: not shown
light: B1 light
notes: also called He Ab E333_16H
B37: GpH7-A5/GpH7-B3 variant I336_01G/GpL16-k0 (antibody, human IgG1, kappa)
heavy 1: not shown
heavy 2: not shown
light: B1 light
notes: also called He Ab I336_01G
B38: GpH7-A5/GpH7-B3 variant E333_05P/GpL16-k0 (antibody, human IgG1, kappa)
heavy 1: not shown
heavy 2: not shown
light: B1 light
notes: also called He Ab E333_05P
B39: GpH7-A5/GpH7-B3 variant E333_01G/GpL16-k0 (antibody, human IgG1, kappa)
heavy 1: not shown
heavy 2: not shown
light: B1 light
notes: also called He Ab E333_01G
B40: GpH7-A5/GpH7-B3 variant H268_07I/GpL16-k0 (antibody, human IgG1, kappa)
heavy 1: not shown
heavy 2: not shown
light: B1 light
notes: also called He Ab H268_07I

T1 sequence (P12314 16-292): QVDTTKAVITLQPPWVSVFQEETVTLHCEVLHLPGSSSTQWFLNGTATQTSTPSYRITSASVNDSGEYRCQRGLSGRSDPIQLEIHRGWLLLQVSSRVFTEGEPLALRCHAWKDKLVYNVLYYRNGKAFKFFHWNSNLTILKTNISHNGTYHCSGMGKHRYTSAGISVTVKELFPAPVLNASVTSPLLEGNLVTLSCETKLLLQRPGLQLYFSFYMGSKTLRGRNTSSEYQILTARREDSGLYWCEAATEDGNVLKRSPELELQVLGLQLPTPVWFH

This test concerns the target T1, FcγRIa (human, UniProt P12314 16-292).
T1 construct: extracellular domain; also called FcgRI; 1a
Put plainly: SPR (Biacore); He Ab relative to HeCon Ab = 100. How it is done: Analysis of interaction between objective antibody and the FcγR was carried out using Biacore T100 (GE Healthcare). HBS-EP+ (GE Healthcare) was used as the running buffer, and the measurement temperature was set to 25° C. Chips produced by immobilizing the antigen peptide by the amine coupling method to a Series S Sencor Chip CM5 (GE Healthcare), or alternatively, chips produced by allowing preliminarily biotinylated antigen peptides to interact with and immobilize onto a Series S Sensor Chip SA (certified) (GE Healthcare) were used. Antibodies of interest were captured onto an antigen peptide-immobilized chip, and allowed to interact to each FcγR diluted with running buffer. To regenerate and repeatedly use the chip, the antibodies captured on the chip were washed off by reacting 10 mM glycine-HCl, pH 1.5.
For orientation: SPR reads the build-up and loss of mass on a sensor chip optically.
Turning to B1, the He/Con_1a was 105 % of control. The figure for B2 is 102 % of control; for B3 it is 100 % of control; for B4 it is 101 % of control. The figure for B5 is 105 % of control.

For B6, the He/Con_1a was 109 % of control. Consider B7, for which the He/Con_1a was 105 % of control. The figure for B8 is 109 % of control; for B9 it is 106 % of control; for B10 it is 106 % of control.

Consider B11, for which the He/Con_1a is 105 % of control.

For the molecule B12, the He/Con_1a is 102 % of control. Next, B13: 107 % of control; B14: 103 % of control.

Take B15: the He/Con_1a is 108 % of control. The figure for B16 is 112 % of control; for B17 it is 102 % of control; for B18 it is 108 % of control. The figure for B19 is 102 % of control; for B20 it is 104 % of control; for B21 it is 107 % of control. Next, B22: 102 % of control. Regarding B23, the He/Con_1a is 100 % of control. B24: the He/Con_1a is 104 % of control. Regarding B25, the He/Con_1a was 100 % of control. The figure for B26 is 110 % of control.

As for B27, the He/Con_1a is 103 % of control. The figure for B28 is 106 % of control; for B29 it is 106 % of control.

Regarding B30, the He/Con_1a was 105 % of control. Regarding B31, the He/Con_1a is 103 % of control. The figure for B32 is 108 % of control; for B33 it is 102 % of control; for B34 it is 102 % of control. The figure for B35 is 105 % of control. The figure for B36 is 101 % of control; for B37 it is 109 % of control. In the case of B38, the He/Con_1a is 102 % of control. Turning to B39, the He/Con_1a is 103 % of control. As to B40, the He/Con_1a was 108 % of control.
